Starred links: 1 amine or outer side, 2 acyl side, 3 side chain; linkers in the order of their positions; H or OH if unused. Non-standard residues stand in square brackets, D forms with d. Groups on a side chain read outwards from the residue. *: point of attachment. C18 diacid = O=C(O)CCCCCCCCCCCCCCCCC(=O)*; γGlu = O=C(O)[C@H](CCC(=O)[*:2])N[*:1]; AEEA = NCCOCCOCC(=O)O; Aib = CC(C)(N)C(=O)O
B1: Compound No. 169 (peptide)
peptide: H-Y[Aib]EGTFISDYSI[Aib]LDKAK([AEEA-AEEA-γGlu-C18 diacid])QQDFVEWLLAQRG-OH
SMILES: CC[C@H](C)[C@H](NC(=O)[C@H](Cc1ccccc1)NC(=O)[C@@H](NC(=O)CNC(=O)[C@H](CCC(=O)O)NC(=O)C(C)(C)NC(=O)[C@@H](N)Cc1ccc(O)cc1)[C@@H](C)O)C(=O)N[C@@H](CO)C(=O)N[C@@H](CC(=O)O)C(=O)N[C@@H](Cc1ccc(O)cc1)C(=O)N[C@@H](CO)C(=O)N[C@H](C(=O)NC(C)(C)C(=O)N[C@@H](CC(C)C)C(=O)N[C@@H](CC(=O)O)C(=O)N[C@@H](CCCCN)C(=O)N[C@@H](C)C(=O)N[C@@H](CCCCNC(=O)COCCOCCNC(=O)COCCOCCNC(=O)CC[C@H](NC(=O)CCCCCCCCCCCCCCCCC(=O)O)C(=O)O)C(=O)N[C@@H](CCC(N)=O)C(=O)N[C@@H](CCC(N)=O)C(=O)N[C@@H](CC(=O)O)C(=O)N[C@@H](Cc1ccccc1)C(=O)N[C@H](C(=O)N[C@@H](CCC(=O)O)C(=O)N[C@@H](Cc1c[nH]c2ccccc12)C(=O)N[C@@H](CC(C)C)C(=O)N[C@@H](CC(C)C)C(=O)N[C@@H](C)C(=O)N[C@@H](CCC(N)=O)C(=O)N[C@@H](CCCNC(=N)N)C(=O)NCC(=O)O)C(C)C)[C@@H](C)CC
B2: Compound No. 168 (peptide)
peptide: H-Y[Aib]EGTFISDYSI[Aib]LDKAAQAK([AEEA-AEEA-γGlu-γGlu-C18 diacid])FVEWLLAQRG-OH
SMILES: CC[C@H](C)[C@H](NC(=O)[C@H](Cc1ccccc1)NC(=O)[C@@H](NC(=O)CNC(=O)[C@H](CCC(=O)O)NC(=O)C(C)(C)NC(=O)[C@@H](N)Cc1ccc(O)cc1)[C@@H](C)O)C(=O)N[C@@H](CO)C(=O)N[C@@H](CC(=O)O)C(=O)N[C@@H](Cc1ccc(O)cc1)C(=O)N[C@@H](CO)C(=O)N[C@H](C(=O)NC(C)(C)C(=O)N[C@@H](CC(C)C)C(=O)N[C@@H](CC(=O)O)C(=O)N[C@@H](CCCCN)C(=O)N[C@@H](C)C(=O)N[C@@H](C)C(=O)N[C@@H](CCC(N)=O)C(=O)N[C@@H](C)C(=O)N[C@@H](CCCCNC(=O)COCCOCCNC(=O)COCCOCCNC(=O)CC[C@H](NC(=O)CC[C@H](NC(=O)CCCCCCCCCCCCCCCCC(=O)O)C(=O)O)C(=O)O)C(=O)N[C@@H](Cc1ccccc1)C(=O)N[C@H](C(=O)N[C@@H](CCC(=O)O)C(=O)N[C@@H](Cc1c[nH]c2ccccc12)C(=O)N[C@@H](CC(C)C)C(=O)N[C@@H](CC(C)C)C(=O)N[C@@H](C)C(=O)N[C@@H](CCC(N)=O)C(=O)N[C@@H](CCCNC(=N)N)C(=O)NCC(=O)O)C(C)C)[C@@H](C)CC
B3: Compound No. 170 (peptide)
peptide: H-Y[Aib]EGTFISDYSI[Aib]LDKAK([AEEA-AEEA-γGlu-C18 diacid])QQDFVNWLLAQRG-OH
SMILES: CC[C@H](C)[C@H](NC(=O)[C@H](Cc1ccccc1)NC(=O)[C@@H](NC(=O)CNC(=O)[C@H](CCC(=O)O)NC(=O)C(C)(C)NC(=O)[C@@H](N)Cc1ccc(O)cc1)[C@@H](C)O)C(=O)N[C@@H](CO)C(=O)N[C@@H](CC(=O)O)C(=O)N[C@@H](Cc1ccc(O)cc1)C(=O)N[C@@H](CO)C(=O)N[C@H](C(=O)NC(C)(C)C(=O)N[C@@H](CC(C)C)C(=O)N[C@@H](CC(=O)O)C(=O)N[C@@H](CCCCN)C(=O)N[C@@H](C)C(=O)N[C@@H](CCCCNC(=O)COCCOCCNC(=O)COCCOCCNC(=O)CC[C@H](NC(=O)CCCCCCCCCCCCCCCCC(=O)O)C(=O)O)C(=O)N[C@@H](CCC(N)=O)C(=O)N[C@@H](CCC(N)=O)C(=O)N[C@@H](CC(=O)O)C(=O)N[C@@H](Cc1ccccc1)C(=O)N[C@H](C(=O)N[C@@H](CC(N)=O)C(=O)N[C@@H](Cc1c[nH]c2ccccc12)C(=O)N[C@@H](CC(C)C)C(=O)N[C@@H](CC(C)C)C(=O)N[C@@H](C)C(=O)N[C@@H](CCC(N)=O)C(=O)N[C@@H](CCCNC(=N)N)C(=O)NCC(=O)O)C(C)C)[C@@H](C)CC
B4: Compound No. 167 (peptide)
peptide: H-Y[Aib]EGTFISDYSI[Aib]LDKAAQQK([AEEA-AEEA-γGlu-γGlu-C18 diacid])FVEWLLAQRG-OH
SMILES: CC[C@H](C)[C@H](NC(=O)[C@H](Cc1ccccc1)NC(=O)[C@@H](NC(=O)CNC(=O)[C@H](CCC(=O)O)NC(=O)C(C)(C)NC(=O)[C@@H](N)Cc1ccc(O)cc1)[C@@H](C)O)C(=O)N[C@@H](CO)C(=O)N[C@@H](CC(=O)O)C(=O)N[C@@H](Cc1ccc(O)cc1)C(=O)N[C@@H](CO)C(=O)N[C@H](C(=O)NC(C)(C)C(=O)N[C@@H](CC(C)C)C(=O)N[C@@H](CC(=O)O)C(=O)N[C@@H](CCCCN)C(=O)N[C@@H](C)C(=O)N[C@@H](C)C(=O)N[C@@H](CCC(N)=O)C(=O)N[C@@H](CCC(N)=O)C(=O)N[C@@H](CCCCNC(=O)COCCOCCNC(=O)COCCOCCNC(=O)CC[C@H](NC(=O)CC[C@H](NC(=O)CCCCCCCCCCCCCCCCC(=O)O)C(=O)O)C(=O)O)C(=O)N[C@@H](Cc1ccccc1)C(=O)N[C@H](C(=O)N[C@@H](CCC(=O)O)C(=O)N[C@@H](Cc1c[nH]c2ccccc12)C(=O)N[C@@H](CC(C)C)C(=O)N[C@@H](CC(C)C)C(=O)N[C@@H](C)C(=O)N[C@@H](CCC(N)=O)C(=O)N[C@@H](CCCNC(=N)N)C(=O)NCC(=O)O)C(C)C)[C@@H](C)CC
B5: Compound No. 163 (peptide)
peptide: H-Y[Aib]EGTFISDYSIALDK[Aib]K([AEEA-AEEA-γGlu-C18 diacid])QANFVEWLLAQRG-OH
SMILES: CC[C@H](C)[C@H](NC(=O)[C@H](CO)NC(=O)[C@H](Cc1ccc(O)cc1)NC(=O)[C@H](CC(=O)O)NC(=O)[C@H](CO)NC(=O)[C@@H](NC(=O)[C@H](Cc1ccccc1)NC(=O)[C@@H](NC(=O)CNC(=O)[C@H](CCC(=O)O)NC(=O)C(C)(C)NC(=O)[C@@H](N)Cc1ccc(O)cc1)[C@@H](C)O)[C@@H](C)CC)C(=O)N[C@@H](C)C(=O)N[C@@H](CC(C)C)C(=O)N[C@@H](CC(=O)O)C(=O)N[C@@H](CCCCN)C(=O)NC(C)(C)C(=O)N[C@@H](CCCCNC(=O)COCCOCCNC(=O)COCCOCCNC(=O)CC[C@H](NC(=O)CCCCCCCCCCCCCCCCC(=O)O)C(=O)O)C(=O)N[C@@H](CCC(N)=O)C(=O)N[C@@H](C)C(=O)N[C@@H](CC(N)=O)C(=O)N[C@@H](Cc1ccccc1)C(=O)N[C@H](C(=O)N[C@@H](CCC(=O)O)C(=O)N[C@@H](Cc1c[nH]c2ccccc12)C(=O)N[C@@H](CC(C)C)C(=O)N[C@@H](CC(C)C)C(=O)N[C@@H](C)C(=O)N[C@@H](CCC(N)=O)C(=O)N[C@@H](CCCNC(=N)N)C(=O)NCC(=O)O)C(C)C

Each binder was assayed against T1, full-length human GIPR with an N-terminal FLAG tag, overexpressed on HEK-293T cells (human, UniProt P48546 22-466) (assay: cell-based or functional assay).
T1 sequence (looked up): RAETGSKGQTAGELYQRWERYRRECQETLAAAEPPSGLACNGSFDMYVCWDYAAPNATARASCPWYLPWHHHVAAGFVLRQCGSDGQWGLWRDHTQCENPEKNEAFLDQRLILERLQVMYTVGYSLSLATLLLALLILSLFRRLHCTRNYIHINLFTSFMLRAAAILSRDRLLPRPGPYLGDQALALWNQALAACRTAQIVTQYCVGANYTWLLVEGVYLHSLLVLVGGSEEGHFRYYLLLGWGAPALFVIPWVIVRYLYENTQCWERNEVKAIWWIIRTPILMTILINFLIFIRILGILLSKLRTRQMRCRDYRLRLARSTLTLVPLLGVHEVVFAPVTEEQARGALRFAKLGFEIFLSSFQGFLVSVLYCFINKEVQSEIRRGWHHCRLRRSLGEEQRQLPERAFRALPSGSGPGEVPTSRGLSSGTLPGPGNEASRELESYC

Row | Binder | Human GIPR cAMP EC50, HEK293T
1 | B1 | 0.0008 nM
2 | B2 | 0.0009 nM
3 | B3 | 0.0005 nM
4 | B4 | 0.0009 nM
5 | YXEGTFISDYSIAXDKAXQQDFVEWLLAQRG (N-terminus H; Aib at 2, 14; Km at 18 = Lys(2OEGgE-C18DA); C-terminus OH) [Compound No. 164] | 0.0002 nM
6 | YXEGTFISDYSIAXDKIXQADFVEWLLAQRG (N-terminus H; Aib at 2, 14; Km at 18 = Lys(2OEGgE-C18DA); C-terminus OH) [Compound No. 166] | 0.0005 nM
7 | YXEGTFISDYSIAXDKAXQADFVEWLLAQRG (N-terminus H; Aib at 2, 14; Km at 18 = Lys(2OEGgE-C18DA); C-terminus OH) [Compound No. 165] | 0.0001 nM
8 | B5 | 0.0002 nM

These binders were tested against full-length human GLP-1R with an N-terminal FLAG tag, overexpressed on HEK-293T cells (human, UniProt P43220 24-463) (assay: cell-based or functional assay).

Row | Binder | Human GLP1R cAMP EC50, HEK293T
9 | B1 | 178 nM
10 | B2 | 16.6 nM
11 | B3 | 61.7 nM
12 | B4 | 38 nM
13 | YXEGTFISDYSIAXDKAXQQDFVEWLLAQRG (N-terminus H; Aib at 2, 14; Km at 18 = Lys(2OEGgE-C18DA); C-terminus OH) [Compound No. 164] | > 1000 nM
14 | YXEGTFISDYSIAXDKIXQADFVEWLLAQRG (N-terminus H; Aib at 2, 14; Km at 18 = Lys(2OEGgE-C18DA); C-terminus OH) [Compound No. 166] | 74.1 nM
15 | YXEGTFISDYSIAXDKAXQADFVEWLLAQRG (N-terminus H; Aib at 2, 14; Km at 18 = Lys(2OEGgE-C18DA); C-terminus OH) [Compound No. 165] | > 1000 nM
16 | B5 | 219 nM

— patent US20230143604A1, “QW DOSING OF GIP RECEPTOR AGONIST PEPTIDE COMPOUNDS AND USES THEREOF” (TAKEDA PHARMACEUTICAL COMPANY LIMITED, priority 2020, published 2023)
